Patent publication US20210196796A1 (SYNTHEKINE, published 2021)

Columns and labels:
[1] = molecular target: T1, orthogonal hCD122 receptor (hoRb), hCD122 with H133D and Y134F (human, UniProt P14784 27-550); experiment: cell-based or functional assay
T1 sequence: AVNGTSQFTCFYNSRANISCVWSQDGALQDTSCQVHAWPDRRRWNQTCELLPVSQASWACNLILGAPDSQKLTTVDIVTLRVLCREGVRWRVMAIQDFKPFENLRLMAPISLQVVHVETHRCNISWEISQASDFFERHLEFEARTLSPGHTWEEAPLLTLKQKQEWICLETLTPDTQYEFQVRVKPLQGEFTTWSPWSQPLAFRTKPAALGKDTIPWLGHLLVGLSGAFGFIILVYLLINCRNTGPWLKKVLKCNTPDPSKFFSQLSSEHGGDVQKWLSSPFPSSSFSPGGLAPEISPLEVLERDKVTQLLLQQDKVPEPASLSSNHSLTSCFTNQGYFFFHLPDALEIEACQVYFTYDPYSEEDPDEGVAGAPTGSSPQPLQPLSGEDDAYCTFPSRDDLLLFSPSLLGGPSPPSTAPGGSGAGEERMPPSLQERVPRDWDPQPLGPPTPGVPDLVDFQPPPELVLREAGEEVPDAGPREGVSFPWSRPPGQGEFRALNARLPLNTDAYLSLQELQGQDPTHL

[2] = molecular target: T1, orthogonal hCD122 receptor (hoRb), …; experiment: cell-based or functional assay; remark: listed apart in the source
For Relative Proliferation Fold Change 3F8 1:10 in this document: reference of the scale not given here.
For Relative Proliferation Fold Change 3F8 1:2 in this document: reference of the scale not given here.
For Relative Proliferation Fold Change 3F8 1:50 in this document: reference of the scale not given here.
For Relative Proliferation Fold Change NKL 1:10 in this document: reference of the scale not given here.
For Relative Proliferation Fold Change NKL 1:2 in this document: reference of the scale not given here.
For Relative Proliferation Fold Change NKL 1:50 in this document: reference of the scale not given here.

B1: T3P, SQVLKA (ligand)
chain: APPSSSTKKTQLQLSQLLVLLKAILNGINNYKNPKLTRMLTFKFYMPKKATELKHLQCLEEELKPLEEVLNLAQSKNFHLRPRDLISNINVIVLELKGSETTFMCEYADETATIVEFLNRWITFCQSIISTLT
NKL Ortho Proliferation Signal 1:2 [1]: 55400
NKL Ortho Proliferation Signal 1:10 [1]: 56900
NKL Ortho Proliferation Signal 1:50 [1]: 32700
Relative Proliferation Fold Change NKL 1:2 [1]: 6.03 fold
Relative Proliferation Fold Change NKL 1:10 [1]: 4.91 fold
Relative Proliferation Fold Change NKL 1:50 [1]: 2.9 fold
3F8 Ortho Proliferation Signal 1:2 [2]: 36500 cts/min
3F8 Ortho Proliferation Signal 1:10 [2]: 39700 cts/min
3F8 Ortho Proliferation Signal 1:50 [2]: 19000 cts/min
Relative Proliferation Fold Change 3F8 1:2 [2]: 33.9 fold
Relative Proliferation Fold Change 3F8 1:10 [2]: 42.8 fold
Relative Proliferation Fold Change 3F8 1:50 [2]: 38.5 fold
